Test results taken from patent US20240009318A1 (BLISS BIOPHARMACEUTICAL HANGZHOU, published 2024).
Residue numbers refer to the chain shown, from its start. Numbers in names are those of the source. Each block holds one binder with its values, some of them ahead of it.

Experiments:
human EGFR protein [1] = target: T1, human EGFR protein (human, UniProt P00533 25-645, limits assumed); test: ELISA
T1 construct: The BLI text says 'human EGFR'; the ELISA text says only 'EGFR'; also called epidermal growth factor receptor; HER1
Description: (§1) Mutant antibody samples or control antibodies diluted in 5-fold serial dilutions starting from 10 μg/mL and 8 dilutions total, were coated onto 96-well plates and the plates were incubated at 4° C. overnight. Using HRP-labeled goat anti-human IgG Fc antibody (Sigma, A0170) in 40000 dilution as a detection agent and TMB for colorimetric reaction, the plates read at 450/650 nm for absorbance on Microplate Reader (Molecular Devices, SpectraMax 190) and data analysis was performed using a dose response curve format four parameters logistic model.

human EGFR protein [2] = target: T1, human EGFR protein; test: ELISA of binding to EGFR, 5-fold dilutions from 10 ug/mL, detection with HRP goat anti-human IgG Fc, OD 450/650 nm
Description: as §1

human EGFR protein [3] = target: T1, human EGFR protein; test: BLI (Octet RED96e), antibody captured on anti-human Fc (AHC) biosensors, EGFR in solution
Description: Affinity tests are performed in SD buffer (0.02% Tween-20, 0.1% BSA in PBS buffer, pH 7.4) using anti-human Fc Capture (AHC) biosensors. Antibody sample or buffer are dispensed into 96-well microtiter plates. AHC biosensors (Pall FortéBio) are pre-wet with SD buffer to establish a baseline before protein immobilization. The antibody sample is immobilized onto the biosensors. […] Mutant and control antibodies binding is evaluated at various concentrations of EGFR. Data are generated automatically by the Data Acquisition software, and data analysis is performed using FortéBio Data Analysis software.

B1: BB0500-2g1 (antibody, V domains shown)
VH: QVQLQESGPGLVKPSETLSLTCTVSGGSVSSGDYYWTWIRQSPGKGLEWIGHIYYSGNTNYNPSLKSRLTISIDTSKTQFSLKLSSVTAADTAIYYCVRDRVAGAFDIWGQGTMVTVSS
VL: DIQMTQSPSSLSASVGDRVTITCQASQDISNYLNWYQQKPGKAPKLLIYDASNLETGVPSRFSGSGSGTDFTFTISSLQPEDIATYFCQHFDHLPLAFGGGTKVEIKR
notes: The entries already carry the mutation; also called H3T103 single alanine mutant of panitumumab (VH T103A, VL wt)
EC50 fold change against wt control (human EGFR protein [1]): ~100 fold

B2: BB0500-2f1 (antibody, V domains shown)
VH: B1 VH with T59A, A103T
VL: B1 VL
notes: The entries already carry the mutation; also called H2T59 single alanine mutant of panitumumab (VH T59A, VL wt)
EC50 (read off the curve) (human EGFR protein [2]): ~0.02 µg/mL
Kd (human EGFR protein [3]): 1.12 nM
koff (human EGFR protein [3]): 0.000736 s⁻¹
kon (human EGFR protein [3]): 655000 M⁻¹ s⁻¹

B5: BB0500-2f (antibody)
heavy: QVQLQESGPGLVKPSETLSLTCTVSGGSVSSGDYYWTWIRQSPGKGLEWIGHIYYSGNANYNPSLKSRLTISIDTSKTQFSLKLSSVTAADTAIYYCVRDRVTGAFDIWGQGTMVTVSSASTKGPSVFPLAPCSRSTSESTAALGCLVKDYFPEPVTVSWNSGALTSGVHTFPAVLQSSGLYSLSSVVTVPSSNFGTQTYTCNVDHKPSNTKVDKTVEPKSDKCTHTVECPPCPAPPVAGPSVFLFPPKPKDTLMISRTPEVTCVVVDVSHEDPEVQFNWYVDGVEVHNAKTKPREEQFNSTFRVVSVLTVVHQDWLNGKEYKCKVSNKGLPAPIEKTISKTKGQPREPQVYTLPPSREEMTKNQVSLTCLVKGFYPSDISVEWESNGQPENNYKTTPPMLDSDGSFFLYSKLTVDKSRWQQGNVFSCSVMHEALHNHYTQKSLSLSPGK
light: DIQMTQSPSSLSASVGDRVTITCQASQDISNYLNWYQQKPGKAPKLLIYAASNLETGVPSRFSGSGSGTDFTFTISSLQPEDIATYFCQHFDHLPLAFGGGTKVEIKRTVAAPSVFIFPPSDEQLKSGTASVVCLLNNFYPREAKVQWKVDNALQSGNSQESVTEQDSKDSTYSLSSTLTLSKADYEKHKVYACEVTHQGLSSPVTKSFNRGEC
notes: Same variable domains as BB0500-2n; the heavy chain constant part differs; also called H2T59 / L2D50 double alanine mutant of panitumumab (VH T59A, VL D50A)
EC50 (read off the curve) (human EGFR protein [2]): ~0.02 µg/mL

The next lines start with the values.

EC50 (read off the curve) (human EGFR protein [2]): ~0.02 µg/mL
Kd (human EGFR protein [3]): 28.3 nM
koff (human EGFR protein [3]): 0.0154 s⁻¹
kon (human EGFR protein [3]): 543000 M⁻¹ s⁻¹
B3: BB0500-2f2 (antibody, V domains shown)
VH: B1 VH with A103T
VL: B1 VL with D50A
notes: The entries already carry the mutation; also called L2D50 single alanine mutant of panitumumab (VH wt, VL D50A)

EC50 (read off the curve) (human EGFR protein [2]): ~0.02 µg/mL
Kd (human EGFR protein [3]): 38.8 nM
koff (human EGFR protein [3]): 0.0272 s⁻¹
kon (human EGFR protein [3]): 701000 M⁻¹ s⁻¹
B4: BB0500-2g (antibody, V domains shown)
VH: B1 VH
VL: B1 VL with Y32A
notes: also called H3T103 / L1Y32 double alanine mutant of panitumumab (VH T103A, VL Y32A)

Kd (human EGFR protein [3]): 44.1 nM
koff (human EGFR protein [3]): 0.024 s⁻¹
kon (human EGFR protein [3]): 543000 M⁻¹ s⁻¹
B6: BB0500-2n (antibody)
heavy: QVQLQESGPGLVKPSETLSLTCTVSGGSVSSGDYYWTWIRQSPGKGLEWIGHIYYSGNANYNPSLKSRLTISIDTSKTQFSLKLSSVTAADTAIYYCVRDRVTGAFDIWGQGTMVTVSSASTKGPSVFPLAPCSRSTSESTAALGCLVKDYFPEPVTVSWNSGALTSGVHTFPAVLQSSGLYSLSSVVTVPSSNFGTQTYTCNVDHKPSNTKVDKTVEPPKSDCKTHTVECPPCPAPEAAGGPSVFLFPPKPKDTLMISRTPEVTCVVVDVSHEDPEVKFNWYVDGVEVHNAKTKPREEQYNSTYRVVSVLTVLHQDWLNGKEYKCKVSNKALPAPIEKTISKAKGQPREPQVYTLPPSREEMTKNQVSLTCLVKGFYPSDIAVEWESNGQPENNYKTTPPVLDSDGSFFLYSKLTVDKSRWQQGNVFSCSVMHEALHNHYTQKSLSLSPGK
light: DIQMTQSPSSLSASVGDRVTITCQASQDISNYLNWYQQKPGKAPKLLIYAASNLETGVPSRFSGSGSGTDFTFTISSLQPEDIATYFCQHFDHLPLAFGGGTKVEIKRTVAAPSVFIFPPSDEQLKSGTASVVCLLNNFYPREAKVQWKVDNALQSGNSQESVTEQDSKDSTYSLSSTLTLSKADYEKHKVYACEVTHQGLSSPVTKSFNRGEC
notes: Same variable domains as BB0500-2f; the heavy chain constant part differs
